Source: US9820934B2, “Acid containing lipid formulations” (CAMURUS AB, priority 2007, dated 2017)

Assay: Dissolution of GLP-1 in lipid formulation containing P80 and MeSulf (visual: homogenous, transparent)
Type: physicochemical
Conditions: SPC/GDO/P80/EtOH/PG/MeSulf=41.0/41.0/5.0/3.0/10.0/0.5 wt %; nominal loads 3, 4, 5 and 6 wt % GLP-1(0); room temperature, 1-3 days
From the text: The lipid composition was the following: SPC/GDO/P80/EtOH/PG/MeSulf=41.0/41.0/5.0/3.0/10.0/0.5 wt %.

GLP-1(7-36)amide, acetate salt [GLP-1(Ac)]
Dissolution of GLP-1 in the lipid formulation: complete dissolution
